Data as given in PMC7399497, “The Dual PDZ Domain from Postsynaptic Density Protein 95 Forms a Scaffold with Peptide Ligand” (Biophysical Journal, 2020).

Legend:
Test in all cases: ITC; 5 mM RRESEI in the syringe, PDZ1-2, PDZ1 or PDZ2 in the cell at nominally 0.13 mM; 25°C; 20 mM Tris-HCl, 150 mM NaCl pH 8.5; single class of sites; Kd and N could not be refined independently
Conditions in all cases: both partners purified
[1] = target: T1, PSD-95 PDZ1 domain (human, UniProt P78352 55-152)
T1 construct: Gly-Pro left at the N-terminus after HRV 3C cleavage of the tag; PSD-95, human, PDZ1, residues 55-152 of UniProt P78352 (98-195 of P78352-2); Glutathione was not used in the purification of the single domains; source: E. coli BL21(DE3), purified (Ni-NTA, HRV 3C tag cleavage, negative Ni-NTA, Superdex 200 SEC); not shown: His6, N-terminal, cleaved

[2] = target: T2, PSD-95 PDZ2 domain (human, UniProt P78352 154-249)
T2 construct: Gly-Pro left at the N-terminus after HRV 3C cleavage of the tag; PSD-95, human, PDZ2, residues 154-249 of UniProt P78352 (197-292 of P78352-2); Glutathione was not used in the purification of the single domains; source: E. coli BL21(DE3), purified (Ni-NTA, HRV 3C tag cleavage, negative Ni-NTA, Superdex 200 SEC); not shown: His6, N-terminal, cleaved

[3] = target: T3, PSD-95 PDZ1-2 (dual PDZ domain of postsynaptic density protein 95) (human, UniProt P78352 55-249)
T3 construct: Gly-Pro left at the N-terminus after HRV 3C cleavage of the tag; PSD-95 (disks large homolog 4, SAP-90), human, residues 55-249 of UniProt P78352 (98-292 of P78352-2); PDZ1, linker and PDZ2; No Cys residues in the construct; also called apo-PDZ1-2; PDZ1-2 double domain; source: E. coli BL21(DE3), purified (Ni-NTA, HRV 3C tag cleavage, negative Ni-NTA, Superdex 200 SEC); not shown: His6, …
T3 sequence (P78352 other isoform, or with tags, fused parts or gaps): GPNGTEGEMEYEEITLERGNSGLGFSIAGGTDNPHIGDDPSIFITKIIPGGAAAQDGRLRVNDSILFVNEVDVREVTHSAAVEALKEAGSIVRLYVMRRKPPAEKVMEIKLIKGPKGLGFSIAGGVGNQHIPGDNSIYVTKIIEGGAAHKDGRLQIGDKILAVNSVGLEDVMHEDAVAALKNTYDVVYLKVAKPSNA

T1 sequence (P78352 other isoform, or with tags, fused parts or gaps): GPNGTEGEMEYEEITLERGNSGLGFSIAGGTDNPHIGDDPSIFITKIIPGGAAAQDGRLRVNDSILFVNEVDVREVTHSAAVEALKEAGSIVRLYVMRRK
T2 sequence (P78352 other isoform, or with tags, fused parts or gaps): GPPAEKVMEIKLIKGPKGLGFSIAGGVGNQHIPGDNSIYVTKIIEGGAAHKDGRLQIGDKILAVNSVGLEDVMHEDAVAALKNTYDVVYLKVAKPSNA

Kd [1]: 6 ± 6 µM
stoichiometry N [1]: 0.61 ± 0.08
Kd [2]: 60 ± 2 µM
stoichiometry N [2]: 0.19 ± 0.06
Kd [3]: 90 ± 9 µM
stoichiometry N [3]: 0.2 ± 0.07
B1: RRESEI peptide (last six residues, 422-427, of Kir2.1) (peptide)
peptide: RRESEI
notes: C-terminal six residues (422-427) of the inwardly rectifying potassium channel Kir2.1; also called RRESEI ligand; ligand peptide; source: synthetic peptide, 98% purity; bought: Peptide Protein Research
